In patent US20050037969A1 (ARBOR VITA, published 2005):
Ends that are not written are not given here. * marks the point of attachment. Biotin = O=C1N[C@H]2[C@H](CS[C@H]2CCCCC(=O)*)N1

T1: GST-DVL1 PDZ domain fusion protein (human, UniProt O14640 247-339)
T1 construct: also called human dishevelled segment polarity protein homolog; not shown: glutathione S-transferase encoded by vector pGEX-3X (Pharmacia)
T1 sequence: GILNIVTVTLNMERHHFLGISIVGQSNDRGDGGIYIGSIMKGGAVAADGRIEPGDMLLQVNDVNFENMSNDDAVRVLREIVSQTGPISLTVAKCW

T2: GST-LIM protein PDZ domain fusion protein (Human, UniProt Q96HC4 2-85)
T2 construct: also called Human LIM protein; not shown: glutathione S-transferase encoded by vector pGEX-3X (Pharmacia)
T2 sequence: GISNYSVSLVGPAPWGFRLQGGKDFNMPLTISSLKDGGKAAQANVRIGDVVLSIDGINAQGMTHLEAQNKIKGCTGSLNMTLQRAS

T3: GST-PDZK1 fusion protein (PDZ domains 2-4) (Homo sapiens, UniProt Q5T2W1 134-457)
T3 construct: not shown: glutathione S-transferase encoded by vector pGEX-3X (Pharmacia)
T3 sequence: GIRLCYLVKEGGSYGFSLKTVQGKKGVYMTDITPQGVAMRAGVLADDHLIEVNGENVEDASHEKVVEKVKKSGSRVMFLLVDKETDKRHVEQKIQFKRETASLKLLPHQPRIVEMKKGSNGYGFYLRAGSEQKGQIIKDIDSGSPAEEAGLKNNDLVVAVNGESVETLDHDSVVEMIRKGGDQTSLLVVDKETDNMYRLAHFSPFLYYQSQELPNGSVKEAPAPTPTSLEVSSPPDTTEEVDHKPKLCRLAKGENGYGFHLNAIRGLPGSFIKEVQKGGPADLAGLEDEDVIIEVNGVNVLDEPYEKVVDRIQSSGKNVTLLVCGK

T4: MINT3 PDZ-GST fusion protein
T4 construct: Order of GST and PDZ part and limits not seen in the excerpts
T4 chain: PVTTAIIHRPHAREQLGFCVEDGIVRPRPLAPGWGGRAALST

T5: TAX-IP33 PDZ-GST fusion protein (Homo sapiens (Human), UniProt O14910 103-193)
T5 construct: Order of GST and PDZ part and limits not seen in the excerpts
T5 sequence: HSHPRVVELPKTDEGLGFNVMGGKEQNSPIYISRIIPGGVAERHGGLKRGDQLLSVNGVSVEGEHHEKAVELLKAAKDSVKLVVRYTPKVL

T6: GEF PDZ-GST fusion protein (Homo sapiens (Human), UniProt Q8TEU7 293-400)
T6 construct: The label GEF is not explained in the excerpts
T6 sequence: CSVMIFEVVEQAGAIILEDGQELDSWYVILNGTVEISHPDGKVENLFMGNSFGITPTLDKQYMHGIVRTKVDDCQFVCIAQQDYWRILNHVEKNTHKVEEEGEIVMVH

T7: GST-KIAA0303 PDZ domain fusion protein (Homo sapiens (Human), UniProt O15021 1138-1228)
T7 construct: also called K303; not shown: glutathione S-transferase encoded by vector pGEX-3X (Pharmacia)
T7 sequence: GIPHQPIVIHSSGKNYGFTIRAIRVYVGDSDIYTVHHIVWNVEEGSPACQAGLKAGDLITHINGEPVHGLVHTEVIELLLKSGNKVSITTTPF

T8: GST-TAX-IP40 PDZ domain fusion protein (human, UniProt Q6B4M5 150-252 (rat entry))
T8 construct: also called TAX40; not shown: glutathione S-transferase encoded by vector pGEX-3X (Pharmacia)
T8 sequence: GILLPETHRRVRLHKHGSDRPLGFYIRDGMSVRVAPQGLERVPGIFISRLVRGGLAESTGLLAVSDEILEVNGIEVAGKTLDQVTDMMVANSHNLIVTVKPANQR

T9: KIAA0807 (PDZ domain)-GST fusion protein (human, UniProt Q6P0Q8 1104-1192)
T9 construct: also called K807; KIAA807; not shown: glutathione S-transferase encoded by vector pGEX-3X (Pharmacia)
T9 sequence: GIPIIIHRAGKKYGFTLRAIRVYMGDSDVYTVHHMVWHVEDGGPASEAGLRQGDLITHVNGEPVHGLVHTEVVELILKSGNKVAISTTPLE

T10: TAX-IP2L PDZ-GST fusion protein (Homo sapiens (Human), UniProt Q8TF64 107-197)
T10 construct: Order of GST and PDZ part and limits not seen in the excerpts
T10 sequence: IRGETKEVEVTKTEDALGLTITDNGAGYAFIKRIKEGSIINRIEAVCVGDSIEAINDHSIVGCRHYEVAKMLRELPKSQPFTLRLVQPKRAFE

T11: GST-DLG5 (p-dlg) PDZ domain fusion protein (Human, UniProt Q8TDM6 1343-1583)
T11 construct: also called Human discs large protein p-dlg; not shown: glutathione S-transferase encoded by vector pGEX-3X (Pharmacia)
T11 sequence: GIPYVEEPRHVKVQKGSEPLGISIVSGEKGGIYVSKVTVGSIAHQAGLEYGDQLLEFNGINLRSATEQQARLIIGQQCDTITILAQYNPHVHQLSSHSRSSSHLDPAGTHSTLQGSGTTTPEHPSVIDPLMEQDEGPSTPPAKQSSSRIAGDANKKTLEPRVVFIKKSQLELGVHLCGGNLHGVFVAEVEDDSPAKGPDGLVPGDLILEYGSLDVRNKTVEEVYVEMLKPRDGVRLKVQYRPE

T12: K559 PDZ-GST fusion protein (Homo sapiens (Human), UniProt Q9Y6V0 4489-4593)
T12 construct: Order of GST and PDZ part and limits not seen in the excerpts
T12 sequence: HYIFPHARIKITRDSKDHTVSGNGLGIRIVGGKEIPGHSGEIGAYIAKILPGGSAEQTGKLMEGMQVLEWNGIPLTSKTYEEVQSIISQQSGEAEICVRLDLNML


Key:
Assay in all cases: A/G assays
[1] = target: T1, GST-DVL1 PDZ domain fusion protein
[2] = target: T2, GST-LIM protein PDZ domain fusion …
[3] = target: T3, GST-PDZK1 fusion protein (PDZ domains …)
[4] = target: T13, GST-TIAM1 PDZ domain fusion protein (Homo sapiens (Human), UniProt Q13009 845-931)
T13 construct: also called TLAM1; T-lymphoma invasion and metastasis inducing protein 1; not shown: glutathione S-transferase encoded by vector pGEX-3X (Pharmacia)
T13 sequence (Q13009 other isoform, or with tags, fused parts or gaps): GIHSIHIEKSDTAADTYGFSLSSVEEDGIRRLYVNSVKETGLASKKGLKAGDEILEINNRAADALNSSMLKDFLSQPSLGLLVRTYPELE

[5] = target: T4, MINT3 PDZ-GST fusion protein
[6] = target: T5, TAX-IP33 PDZ-GST fusion protein
[7] = target: T6, GEF PDZ-GST fusion protein
[8] = target: T14, NSP PDZ-GST fusion protein (Homo sapiens (Human), UniProt Q92743 370-466)
T14 construct: The label NSP is not explained in the excerpts
T14 sequence (Q92743 other isoform, or with tags, fused parts or gaps limits assumed): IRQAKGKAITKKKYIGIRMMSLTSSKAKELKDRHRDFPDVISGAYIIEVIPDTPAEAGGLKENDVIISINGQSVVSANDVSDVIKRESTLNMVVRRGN

[9] = target: T7, GST-KIAA0303 PDZ domain fusion protein
[10] = target: T8, GST-TAX-IP40 PDZ domain fusion protein
[11] = target: T9, KIAA0807 (PDZ domain)-GST fusion protein
[12] = target: T10, TAX-IP2L PDZ-GST fusion protein
[13] = target: T11, GST-DLG5 (p-dlg) PDZ domain fusion …
[14] = target: T15, NOS1 PDZ-GST fusion protein (Homo sapiens (Human), UniProt P29475 11-100)
T15 construct: Order of GST and PDZ part and limits not seen in the excerpts
T15 sequence (P29475 11-100 limits assumed): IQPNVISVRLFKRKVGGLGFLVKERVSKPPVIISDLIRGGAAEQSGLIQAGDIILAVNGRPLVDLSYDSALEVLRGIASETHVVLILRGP

[15] = target: T12, K559 PDZ-GST fusion protein

Binder	binding result [1]	binding result [2]	binding result [3]	binding result [4]	binding result [5]	binding result [6]	binding result [7]	binding result [8]	binding result [9]	binding result [10]	binding result [11]	binding result [12]	binding result [13]	binding result [14]	binding result [15]
Biotin-LERTSSVSPSTAEPELSIVF (Only the last four residues are seen in the excerpts) [CC CKR-3 C-terminal peptide AA43L]	no binding	no binding	no binding	no binding	no binding	no binding	no binding	no binding	no binding	no binding	no binding	no binding	no binding	no binding	no binding
Biotin-ISKATPALPTVSISSSAEV (also called AA1L-R) [Clasp-1 C-terminal peptide AA1L, biotinylated]	no binding	no binding	no binding	no binding	no binding	no binding	no binding	no binding	no binding	no binding	no binding	no binding	no binding	no binding	no binding
Biotin-GTSDMKDLVGNIEQNEHSVI (Only the last four residues are seen in the excerpts) [Mannose receptor C-terminal peptide AA31L]	no binding	no binding	no binding	no binding	no binding	no binding	no binding	no binding	no binding	no binding	no binding	no binding	no binding	no binding	no binding
Biotin-ENLAPVTTFGKTNGYIA (also called CD148 (DEP-1)) [CD148 C-terminal peptide AA19L, biotinylated]	no binding	no binding	no binding	no binding	no binding	no binding	no binding	no binding	no binding	no binding	no binding	no binding	no binding	no binding	no binding

Other lines, results leading:

binding result [1]	binding result [2]	binding result [3]	binding result [4]	binding result [5]	binding result [6]	binding result [7]	binding result [8]	binding result [9]	binding result [10]	binding result [11]	binding result [12]	binding result [13]	binding result [14]	binding result [15]	Binder
no binding	no binding	no binding	no binding	no binding	no binding	no binding	no binding	no binding	no binding	no binding	no binding	no binding	no binding	no binding	Biotin-LNFPLLQGIRVHGMEALGSF (Only the last four residues are seen in the excerpts) [CD114 (G-CSFR) C-terminal peptide AA27L]
no binding	no binding	no binding	no binding	no binding	no binding	no binding	no binding	no binding	no binding	no binding	no binding	no binding	no binding	no binding	Biotin-CAISGTSSDRGYGSPRYAEV (also called AA3L-V) [Clasp-4 C-terminal peptide AA3L, biotinylated]
